# Earlier results, collected in article PMC10249258.
# pKd: −log10 of the molar value.
# Target: CD155 (Homo sapiens) (UniProt P15151)
# Sequence of UniProt P15151 (P15151 21-343): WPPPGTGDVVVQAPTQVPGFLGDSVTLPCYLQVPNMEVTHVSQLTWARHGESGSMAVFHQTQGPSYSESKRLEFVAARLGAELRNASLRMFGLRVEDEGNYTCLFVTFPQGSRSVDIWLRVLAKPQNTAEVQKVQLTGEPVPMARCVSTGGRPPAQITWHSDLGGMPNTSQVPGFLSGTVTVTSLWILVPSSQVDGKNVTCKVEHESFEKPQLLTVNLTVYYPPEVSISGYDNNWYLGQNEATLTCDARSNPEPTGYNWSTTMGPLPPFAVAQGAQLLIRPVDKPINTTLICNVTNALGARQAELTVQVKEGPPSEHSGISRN
substance,measurement,value
TIGIT (from UniProt Q495A1),pKd,8.70
